# Publication PMC3992434 (Developmental cell, 2013)
# B1: recombinant GST-His-tagged AP-1B core complex (γ, β1, μ1B, σ1) (complex)
# chain 1: not shown
# chain 2: MTDSKYFTTTKKGEIFELKAELNSDKKEKKKEAVKKVIASMTVGKDVSALFPDVVNCMQTDNLELKKLVYLYLMNYAKSQPDMAIMAVNTFVKDCEDPNPLIRALAVRTMGCIRVDKITEYLCEPLRKCLKDEDPYVRKTAAVCVAKLHDINAQLVEDQGFLDTLKDLISDSNPMVVANAVAALSEIAESHPSSNLLDLNPQSINKLLTALNECTEWGQIFILDCLANYMPKDDREAQSICERVTPRLSHANSAVVLSAVKVLMKFMEMLSKDLDYYGTLLKKLAPPLVTLLSAEPELQYVALRNINLIVQKRPEILKHEMKVFFVKYNDPIYVKLEKLDIMIRLASQANIAQVLAELREYATEVDVDFVRKAVRAIGRCAIKVEQSAERCVSTLLDLIQTKVNYVVQEAIVVIKDIFRKYPNKYESVIATLCENLDSLDEPEARAAMIWIVGEYAERIDNADELLESFLEGFHDKSTQVQLQLLTAFVKLFLKKPTETQELVQQVLSLATQDSDNPDLRDRGYIYWRLLSTDPVAAKEVVLAEKPLISEETDLIEPTLLDELICYIGTLASVYHKPPSAFVEG
# chain 3: MSASAVFILDVKGKPLISRNYKGDVPMTEIDHFMPLLMQREEEGVLAPLLSHGRVHFLWIKHSNLYLVATTLKNANASLVYSFLYKTVEVFCEYFKELEEESIRDNFVIVYDLLDELMDFGFPQTTDSKILQEYITQQGNKLETGKSRVPPTVTNAVSWRSEGIKYKKNEVFIDVIESVNLLVNANGSVLLSEIVGTIKLKVFLSGMPELRLGLNDRVLFELTGRSKNKSVELEDVKFHQCVRLSRFDNDRTISFIPPDGDFELMSYRLSTQVKPLIWIESVIEKFSHSRVEIMVKAKGQFKKQSVANGVEISVPVPSDADSPRFKTSVGSAKYVPEKNVVIWSIKSFPGGKEYLMRAHFGLPSVETEEVEGRPPIGVKFEIPYFTVSGIQVRYMKIIEKSGYQALPWVRYITQSGDYQLRTS
# chain 4: MIHFILLFSRQGKLRLQKWYITLPDKERKKITREIVQIILSRGHRTSSFVDWKELKLVYKRYASLYFCCAIENQDNELLTLEIVHRYVELLDKYFGNVCELDIIFNFEKAYFILDEFIIGGEIQETSKKIAVKAIEDSDMLQEVSTVCQTMGER
# Target: MBP-LDLR tail wild-type (full-length LDLR tail fused to maltose-binding protein)
# Assay: pull-down
binder,measurement,value
B1,fold binding relative to AP-1A,~5 fold
